Publication PMC8880714, “Antimicrobial effect and mechanism of bovine lactoferrin against the potato common scab pathogen Streptomyces scabiei” (PLoS ONE, 2022)

Tests used:
[1] = system: Streptomyces scabiei S58; assay: microbe, parasite or virus in culture; assay type: cell-based; conditions: TSB, 28 °C, 72 h, absorbance 600 nm; for IC50: S. scabiei S58 spores 2 × 10^5/mL, probit analysis, mean ± SD, n = 3, read-out: Antimicrobial activity (IC50)
Protocol: S. scabiei S58, isolated from potatoes grown in Kagoshima, Japan, was used in this study. […] For antimicrobial assays, the spores of the isolate were incubated at 28 °C in tryptic soy broth (TSB) (Becton Dickinson, Sparks, USA). Escherichia coli strains JM109 and BL21(λDE3) were grown at 37 °C in Luria-Bertani broth supplemented with 100 μg/mL ampicillin for propagation.
(§1) A 12-well plate was used to assess the antimicrobial activity of LF, hydrolysate, LFcinB, and synthetic peptides. One milliliter of TSB containing each test substance was added to each well and then the spores of S. scabiei S58, prepared as described above, were added into each well at a final concentration of 2 × 10^5 spores/mL. The mixture was incubated at 28 °C for 72 h, and the absorbance was measured at 600 nm to monitor bacterial growth. To further confirm whether the antimicrobial activity is due to growth inhibition or bactericidal effect, 1 mL of TSB containing 2 ×10^3 spores and bLF (1 mg/mL) was incubated at 28 °C and directly cultured on STA after 5, 10, 15, 24, 48, and 72 h of incubation to count the emerging colonies. All assays were performed in duplicate and were repeated three times.

[2] = system: Streptomyces scabiei S58; assay: Bactericidal effect assay: colony counting on starch agar after treatment; assay type: cell-based; conditions: bLF 1 mg/mL, 2 × 10^3 spores in 1 mL TSB, 28 °C
Protocol: as §1
Fig 3 Bactericidal effect of bovine-derived lactoferrin (bLF) (A) and minimal inhibitory concentration (MIC) of bLF (B) on Streptomyces scabiei S58. For the assay of bactericidal effect, the mixture of bLF and spores (2 × 10^3/mL) was incubated at 28 °C and directly cultured on starch agar in a time-dependent manner. The number of colonies emerging on the plates was counted. For the MIC assay, the mixture of bLF and spores (2 × 10^5/mL) was incubated at 28 °C for 72 h in tryptic soy broth and the absorbance was measured at 600 nm to monitor bacterial growth. […]

B1: Human lactoferrin (hLF): Human-derived lactoferrin purchased from FUJIFILM Wako (protein, UniProt P02788 20-710, looked up)
Lactotransferrin: GRRRSVQWCAVSQPEATKCFQWQRNMRKVRGPPVSCIKRDSPIQCIQAIAENRADAVTLDGGFIYEAGLAPYKLRPVAAEVYGTERQPRTHYYAVAVVKKGGSFQLNELQGLKSCHTGLRRTAGWNVPIGTLRPFLNWTGPPEPIEAAVARFFSASCVPGADKGQFPNLCRLCAGTGENKCAFSSQEPYFSYSGAFKCLRDGAGDVAFIRESTVFEDLSDEAERDEYELLCPDNTRKPVDKFKDCHLARVPSHAVVARSVNGKEDAIWNLLRQAQEKFGKDKSPKFQLFGSPSGQKDLLFKDSAIGFSRVPPRIDSGLYLGSGYFTAIQNLRKSEEEVAARRARVVWCAVGEQELRKCNQWSGLSEGSVTCSSASTTEDCIALVLKGEADAMSLDGGYVYTAGKCGLVPVLAENYKSQQSSDPDPNCVDRPVEGYLAVAVVRRSDTSLTWNSVKGKKSCHTAVDRTAGWNIPMGLLFNQTGSCKFDEYFSQSCAPGSDPRSNLCALCIGDEQGENKCVPNSNERYYGYTGAFRCLAENAGDVAFVKDVTVLQNTDGNNNEAWAKDLKLADFALLCLDGKRKPVTEARSCHLAMAPNHAVVSRMDKVERLKQVLLHQQAKFGRNGSDCPDKFCLFQSETKNLLFNDNTECLARLHGKTTYEKYLGPQYVAGITNLKKCSTSPLLEACEFLRK
With B1 as the molecule, how does the IC50 [1] read?
The IC50 was 138000 ± 7960 nM.

B2: Bovine lactoferrin (bLF): Bovine-derived lactoferrin purchased from FUJIFILM Wako (protein, UniProt P24627 20-708, looked up)
Lactotransferrin: APRKNVRWCTISQPEWFKCRRWQWRMKKLGAPSITCVRRAFALECIRAIAEKKADAVTLDGGMVFEAGRDPYKLRPVAAEIYGTKESPQTHYYAVAVVKKGSNFQLDQLQGRKSCHTGLGRSAGWIIPMGILRPYLSWTESLEPLQGAVAKFFSASCVPCIDRQAYPNLCQLCKGEGENQCACSSREPYFGYSGAFKCLQDGAGDVAFVKETTVFENLPEKADRDQYELLCLNNSRAPVDAFKECHLAQVPSHAVVARSVDGKEDLIWKLLSKAQEKFGKNKSRSFQLFGSPPGQRDLLFKDSALGFLRIPSKVDSALYLGSRYLTTLKNLRETAEEVKARYTRVVWCAVGPEEQKKCQQWSQQSGQNVTCATASTTDDCIVLVLKGEADALNLDGGYIYTAGKCGLVPVLAENRKSSKHSSLDCVLRPTEGYLAVAVVKKANEGLTWNSLKDKKSCHTAVDRTAGWNIPMGLIVNQTGSCAFDEFFSQSCAPGADPKSRLCALCAGDDQGLDKCVPNSKEKYYGYTGAFRCLAEDVGDVAFVKNDTVWENTNGESTADWAKNLNREDFRLLCLDGTRKPVTEAQSCHLAVAPNHAVVSRSDRAAHVKQVLLHQQALFGKNGKNCPDKFCLFKSETKNLLFNDNTECLAKLGGRPTYEEYLGTEYVTAIANLKKCSTSPLLEACAFLTR
What does the source list for B2?
Number of colonies after treatment, at 5 h ([2]; plated on starch agar after 5 h): sharp decrease in the number of colonies; Number of colonies after treatment, at 48 h ([2]; plated on starch agar after 48 h): only a few colonies remained; IC50 [1]: 458 ± 74 nM; Minimal inhibitory concentration (no growth observed at this concentration and above) ([1]; spores 2 × 10^5/mL): 3.9 µM

B3: Apo-bLF: Iron-depleted (apo) bLF, iron saturation 0.35% (protein, UniProt P24627 20-708, looked up)
Lactotransferrin: APRKNVRWCTISQPEWFKCRRWQWRMKKLGAPSITCVRRAFALECIRAIAEKKADAVTLDGGMVFEAGRDPYKLRPVAAEIYGTKESPQTHYYAVAVVKKGSNFQLDQLQGRKSCHTGLGRSAGWIIPMGILRPYLSWTESLEPLQGAVAKFFSASCVPCIDRQAYPNLCQLCKGEGENQCACSSREPYFGYSGAFKCLQDGAGDVAFVKETTVFENLPEKADRDQYELLCLNNSRAPVDAFKECHLAQVPSHAVVARSVDGKEDLIWKLLSKAQEKFGKNKSRSFQLFGSPPGQRDLLFKDSALGFLRIPSKVDSALYLGSRYLTTLKNLRETAEEVKARYTRVVWCAVGPEEQKKCQQWSQQSGQNVTCATASTTDDCIVLVLKGEADALNLDGGYIYTAGKCGLVPVLAENRKSSKHSSLDCVLRPTEGYLAVAVVKKANEGLTWNSLKDKKSCHTAVDRTAGWNIPMGLIVNQTGSCAFDEFFSQSCAPGADPKSRLCALCAGDDQGLDKCVPNSKEKYYGYTGAFRCLAEDVGDVAFVKNDTVWENTNGESTADWAKNLNREDFRLLCLDGTRKPVTEAQSCHLAVAPNHAVVSRSDRAAHVKQVLLHQQALFGKNGKNCPDKFCLFKSETKNLLFNDNTECLAKLGGRPTYEEYLGTEYVTAIANLKKCSTSPLLEACAFLTR
modifications: iron-depleted (apo)
B3 was tested. Which IC50 [1] did it give?
The IC50 was 2390 ± 203 nM.

B4: Holo-bLF: Iron-saturated (holo) bLF, iron saturation 95.5% (protein, UniProt P24627 20-708, looked up)
Lactotransferrin: APRKNVRWCTISQPEWFKCRRWQWRMKKLGAPSITCVRRAFALECIRAIAEKKADAVTLDGGMVFEAGRDPYKLRPVAAEIYGTKESPQTHYYAVAVVKKGSNFQLDQLQGRKSCHTGLGRSAGWIIPMGILRPYLSWTESLEPLQGAVAKFFSASCVPCIDRQAYPNLCQLCKGEGENQCACSSREPYFGYSGAFKCLQDGAGDVAFVKETTVFENLPEKADRDQYELLCLNNSRAPVDAFKECHLAQVPSHAVVARSVDGKEDLIWKLLSKAQEKFGKNKSRSFQLFGSPPGQRDLLFKDSALGFLRIPSKVDSALYLGSRYLTTLKNLRETAEEVKARYTRVVWCAVGPEEQKKCQQWSQQSGQNVTCATASTTDDCIVLVLKGEADALNLDGGYIYTAGKCGLVPVLAENRKSSKHSSLDCVLRPTEGYLAVAVVKKANEGLTWNSLKDKKSCHTAVDRTAGWNIPMGLIVNQTGSCAFDEFFSQSCAPGADPKSRLCALCAGDDQGLDKCVPNSKEKYYGYTGAFRCLAEDVGDVAFVKNDTVWENTNGESTADWAKNLNREDFRLLCLDGTRKPVTEAQSCHLAVAPNHAVVSRSDRAAHVKQVLLHQQALFGKNGKNCPDKFCLFKSETKNLLFNDNTECLAKLGGRPTYEEYLGTEYVTAIANLKKCSTSPLLEACAFLTR
modifications: iron-saturated (holo)
How did the IC50 [1] turn out when B4 was run?
The IC50 was 2180 ± 428 nM.
